# From patent US20070185028A1 (published 2007)
# No end group written: not given here.
# T1: Human γD crystallin (human, UniProt P07320 2-174, limits assumed)
# T1 sequence (looked up): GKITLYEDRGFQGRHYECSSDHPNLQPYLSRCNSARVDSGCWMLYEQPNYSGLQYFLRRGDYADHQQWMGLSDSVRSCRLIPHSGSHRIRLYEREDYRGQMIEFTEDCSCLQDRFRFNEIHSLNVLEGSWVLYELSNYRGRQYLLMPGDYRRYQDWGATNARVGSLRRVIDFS
# T2: Porcine Citrate synthase (porcine, UniProt P00889 28-464)
# T2 construct: also called CS
# T2 sequence (looked up): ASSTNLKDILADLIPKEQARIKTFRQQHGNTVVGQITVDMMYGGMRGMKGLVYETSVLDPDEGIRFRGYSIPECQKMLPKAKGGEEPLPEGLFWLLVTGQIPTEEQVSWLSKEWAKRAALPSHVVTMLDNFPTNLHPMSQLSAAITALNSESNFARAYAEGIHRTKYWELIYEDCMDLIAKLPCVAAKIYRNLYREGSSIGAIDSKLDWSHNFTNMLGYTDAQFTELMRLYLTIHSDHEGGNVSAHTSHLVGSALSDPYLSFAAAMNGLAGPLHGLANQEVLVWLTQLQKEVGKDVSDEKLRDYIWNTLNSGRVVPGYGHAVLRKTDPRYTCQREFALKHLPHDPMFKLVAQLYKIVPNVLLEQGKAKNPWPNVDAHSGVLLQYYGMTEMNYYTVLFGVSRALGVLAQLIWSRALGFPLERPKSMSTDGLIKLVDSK
# Experiments:
# [1] = target: Amyloid-beta (1-42) (UniProt P05067); test: cell-based or functional assay
# [2] = target: Bovine βH crystallin (bovine); test: cell-based or functional assay
# [3] = target: Equine Alcohol dehydrogenase (equine, UniProt P00327 2-375); test: cell-based or functional assay
# [4] = target: T1, Human γD crystallin; test: cell-based or functional assay
# [5] = target: beta amyloid (UniProt P05067 672-713, limits assumed); test: cell-based or functional assay
# [6] = target: transthyretin (UniProt P02766 21-147); test: cell-based or functional assay
# [7] = target: β2-microglobulin (UniProt P61769 21-119); test: cell-based or functional assay
# [8] = target: T2, Porcine Citrate synthase; test: protein pin array ELISA, A450; listed as peak peptide with unheated and pre-heated target
# [9] = target: T1, Human γD crystallin; test: as above
# [10] = target: T2, Porcine Citrate synthase; test: protein pin array
# Chain of β2-microglobulin (P61769 21-119 limits assumed): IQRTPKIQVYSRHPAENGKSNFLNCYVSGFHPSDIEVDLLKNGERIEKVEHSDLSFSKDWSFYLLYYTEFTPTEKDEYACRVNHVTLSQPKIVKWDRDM
# Chain of Equine Alcohol dehydrogenase (P00327 2-375 limits assumed): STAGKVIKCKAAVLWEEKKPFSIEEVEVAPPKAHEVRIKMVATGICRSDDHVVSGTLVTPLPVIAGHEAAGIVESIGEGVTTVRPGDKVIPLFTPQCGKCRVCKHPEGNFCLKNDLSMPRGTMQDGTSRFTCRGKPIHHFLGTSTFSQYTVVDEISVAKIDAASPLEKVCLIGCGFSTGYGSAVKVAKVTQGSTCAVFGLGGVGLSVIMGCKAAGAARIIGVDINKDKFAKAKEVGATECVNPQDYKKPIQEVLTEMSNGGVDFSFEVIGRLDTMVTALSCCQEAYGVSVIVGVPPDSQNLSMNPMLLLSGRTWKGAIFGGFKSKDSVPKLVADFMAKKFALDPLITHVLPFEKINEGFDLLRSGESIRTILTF
binder,measurement,setting,value
DRFSVNLDVKHFS,"pH induced aggregation of amyloid-beta at pH 5.2, light scattering 360 nm (amyloid-beta alone = 100%)",[1],4 % aggregation
same,"protection against thermal aggregation at 50° C, light scattering 340 nm, 50:1 peptide:target",[2],~30 % protection
same,"protection against thermal aggregation at 50° C, light scattering 340 nm, 50:1 peptide:target",[3],~30 % protection
same,"Δfluorescence (γD crystallin), Thioflavin T, 72 h at 50° C (no chaperone: 888,803,840)",[4],6.61e+08
same,"Δfluorescence (Aβ), Thioflavin T, 72 h at 50° C (no chaperone: 1,324,974,048)",[5],2.64e+08
LTITSSLSDGV,"pH induced aggregation of amyloid-beta at pH 5.2, light scattering 360 nm (amyloid-beta alone = 100%)",[1],15 % aggregation
same,"protection against thermal aggregation at 50° C, light scattering 340 nm, 50:1 peptide:target",[2],~30 % protection
same,"protection against thermal aggregation at 50° C, light scattering 340 nm, 50:1 peptide:target",[3],~30 % protection
STSLSPFYLRPPSFLRAP,"Δfluorescence (γD crystallin), Thioflavin T, 72 h at 50° C (no chaperone: 888,803,840)",[4],6.06e+08
same,"Δfluorescence (Aβ), Thioflavin T, 72 h at 50° C (no chaperone: 1,324,974,048)",[5],4.78e+08
HGKHEERQDE,"pH induced aggregation of amyloid-beta at pH 5.2, light scattering 360 nm (amyloid-beta alone = 100%)",[1],30 % aggregation
same,"Δfluorescence (γD crystallin), Thioflavin T, 72 h at 50° C (no chaperone: 888,803,840)",[4],7.34e+08
same,"Δfluorescence (Aβ), Thioflavin T, 72 h at 50° C (no chaperone: 1,324,974,048)",[5],7.96e+08
LTITSSLSSDGV,"Δfluorescence (γD crystallin), Thioflavin T, 72 h at 50° C (no chaperone: 888,803,840)",[4],6.75e+08
same,"Δfluorescence (Aβ), Thioflavin T, 72 h at 50° C (no chaperone: 1,324,974,048)",[5],3.52e+08
ERTIPITRE,"Δfluorescence (γD crystallin), Thioflavin T, 72 h at 50° C (no chaperone: 888,803,840)",[4],6.11e+08
same,"Δfluorescence (Aβ), Thioflavin T, 72 h at 50° C (no chaperone: 1,324,974,048)",[5],5.77e+08
EERQDE,"TTR fibrillation, ThT fluorescence, 1:1 peptide:TTR (16 µM)",[6],~100 % inhibition
same,"β2m fibrillation, ThT fluorescence, 1:1 peptide:β2m (29 µM)",[7],~100 % inhibition
HEER,"TTR fibrillation, ThT fluorescence, 1:1 peptide:TTR (16 µM)",[6],~100 % inhibition
HGKHEERQ,"TTR fibrillation, ThT fluorescence, 1:1 peptide:TTR (16 µM)",[6],~100 % inhibition
RQDE,"β2m fibrillation, ThT fluorescence, 1:1 peptide:β2m (29 µM)",[7],~100 % inhibition
EERQ,"β2m fibrillation, ThT fluorescence, 1:1 peptide:β2m (29 µM)",[7],~100 % inhibition
"FSVNLDVK (also: covalently bound to polyethylene pin, pin-immobilised 8-mer of human αB crystallin; also called β3)",binding result,[8],binds
same,binding result,[9],binds
HGFISREF (pin-immobilised 8-mer of human αB crystallin; also called peptide 56),binding result,[9],binds
FISREFHR (pin-immobilised 8-mer of human αB crystallin; also called peptide 57),binding result,[8],binds
EFHRKYRI (pin-immobilised 8-mer of human αB crystallin),binding result,[9],binds
"LTITSSLS (also: covalently bound to polyethylene pin, pin-immobilised 8-mer of human αB crystallin; also called β8)",binding result,[8],binds
same,binding result,[9],binds
"GVLTVNGP (also: covalently bound to polyethylene pin, pin-immobilised 8-mer of human αB crystallin; also called β9)",binding result,[9],binds
same,binding result,[10],binds
LTVNGPRK (pin-immobilised 8-mer of human αB crystallin; also called peptide 72),binding result,[8],binds
RTIPITRE (pin-immobilised 8-mer of human αB crystallin; also called peptide 79),binding result,[8],binds
IAIHHPWI (pin-immobilised 8-mer of human αB crystallin; also called peptide 2),binding result,[9],binds
WIRRPFFP (pin-immobilised 8-mer of human αB crystallin; also called peptide 5),binding result,[8],binds
same,binding result,[9],binds
PFFPFHSP (pin-immobilised 8-mer of human αB crystallin; also called 13 PFFPFHSP20),binding result,[9],binds
FPFHSPSR (pin-immobilised 8-mer of human αB crystallin; also called peptide 8),binding result,[8],binds
DQFFGEHL (pin-immobilised 8-mer of human αB crystallin; also called peptide 13),binding result,[9],binds
SLSPFYLR (pin-immobilised 8-mer of human αB crystallin; also called peptide 22),binding result,[8],binds
same,binding result,[9],binds
FYLRPPSF (pin-immobilised 8-mer of human αB crystallin; also called peptide 24),binding result,[8],binds
same,binding result,[9],binds
SFLRAPSW (pin-immobilised 8-mer of human αB crystallin),binding result,[9],binds
LRAPSWFD (pin-immobilised 8-mer of human αB crystallin; also called peptide 28),binding result,[8],binds
